From PMC5014583 (Structure (London, England : 1993), 2016)
Several values for one entry are separate records, joined by “and”; a condition that tells them apart may be missing. Identical values can stand only once.

Columns and labels:
[1] = molecular target: T1, Full-length human calmodulin (CaM) (human, UniProt P0DP23 1-149); experiment: ITC
[2] = molecular target: T1, Full-length human calmodulin (CaM); experiment: NMR titration

Binder: SPANSFHFKEAWKHAIQKAKHMPDPWA [eEF-2KCBD, calmodulin-binding segment of human eEF-2K (residues 74-100)]
- Kd [1]: 153 nM and 137 nM
- dH [1]: -16.6 kcal/mol
- Kd [2]: 36 µM
